The values that follow come from PMC3545873.

The target of experiment [1] is StrepTag II. The settings on record: cited from earlier work.
The target of experiment [2] is StrepTactin. The experiment in a line: optical tweezers (single-molecule pulling); STN covalently coupled to polystyrene beads; tST-DNA-biotin held by its biotin on NTV-coated beads; tST-STN linkage formed in situ; stretched and relaxed at 50 nm/s to just beyond DNA overstretching at about 65 pN until the connection broke; connections that broke below 20 pN disregarded; N = 111.

Chain of Streptavidin (P22629 25-183): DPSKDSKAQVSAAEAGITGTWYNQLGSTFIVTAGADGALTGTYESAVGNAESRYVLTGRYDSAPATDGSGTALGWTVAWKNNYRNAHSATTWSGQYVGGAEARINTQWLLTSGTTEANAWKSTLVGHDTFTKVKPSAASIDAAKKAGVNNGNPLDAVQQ

Turning to Streptavidin (from UniProt P22629), the Kd in experiment [1] is 72 µM.

As for “tST-DNA-biotin (tandem of two StrepTag II peptides linked to 2553 bp dsDNA, biotinylated at the other DNA end)”, in experiment [2], the average rupture force was more than 65 pN, the fraction of times the tether survives overstretching (first pull) came to 77% and the fraction of times the tether survives overstretching (subsequent pulls) was determined as 87%.

One may read the Kd as a measure of binding affinity in units of concentration.
